How the values were obtained:
[1] = target: T1, full-length murine urokinase-type plasminogen activator (muPA) (murine, UniProt P06869 21-433); assay: SPR
[2] = target: T2, catalytic serine protease domain of murine urokinase-type plasminogen activator (muPA), Gly2-Gly244, C122A (murine); assay: SPR
[3] = target: T1, full-length murine urokinase-type …; assay: SPR; remark: listed apart in the source
[4] = target: T2, catalytic serine protease domain of …; assay: SPR; remark: listed apart in the source
[5] = target: T3, catalytic domain of muPA (Gly2-Gly244, C122A) inhibited at the active site with Glu-Gly-Arg-chloromethylketone (murine, irreversible active site binding ligand Glu-Gly-Arg-chloromethylketone (EGR-cmk) in the active site); assay: SPR; EGR-cmk inhibited
T3 sequence (chain, as listed by the source C122A): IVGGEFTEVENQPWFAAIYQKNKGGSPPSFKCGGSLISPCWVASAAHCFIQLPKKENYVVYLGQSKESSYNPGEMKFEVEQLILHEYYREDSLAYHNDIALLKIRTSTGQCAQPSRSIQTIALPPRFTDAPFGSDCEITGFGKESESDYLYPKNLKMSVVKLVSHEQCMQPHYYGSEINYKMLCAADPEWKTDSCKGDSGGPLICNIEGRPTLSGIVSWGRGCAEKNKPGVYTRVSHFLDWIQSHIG

[6] = target: T4, full-length muPA inhibited at the active site with Glu-Gly-Arg-chloromethylketone (murine, UniProt P06869 21-433, irreversible active site binding ligand Glu-Gly-Arg-chloromethylketone (EGR-cmk) in the active site); assay: SPR; EGR-cmk inhibited
T4 sequence (P06869 21-433): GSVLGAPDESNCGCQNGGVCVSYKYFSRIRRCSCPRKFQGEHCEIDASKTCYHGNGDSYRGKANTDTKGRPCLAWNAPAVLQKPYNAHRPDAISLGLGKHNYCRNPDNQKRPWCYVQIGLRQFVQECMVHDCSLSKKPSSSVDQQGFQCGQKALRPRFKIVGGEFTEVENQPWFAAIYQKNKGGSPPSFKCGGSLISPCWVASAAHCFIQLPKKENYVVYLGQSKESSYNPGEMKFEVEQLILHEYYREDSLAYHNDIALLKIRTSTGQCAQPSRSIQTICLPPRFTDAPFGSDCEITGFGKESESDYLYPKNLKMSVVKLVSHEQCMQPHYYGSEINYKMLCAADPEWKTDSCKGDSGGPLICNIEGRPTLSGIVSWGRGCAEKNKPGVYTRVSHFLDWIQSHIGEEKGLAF

[7] = target: T3, catalytic domain of muPA (Gly2-Gly244, …); assay: SPR; EGR-cmk inhibited; remark: listed apart in the source
[8] = target: T4, full-length muPA inhibited at the …; assay: SPR; EGR-cmk inhibited; remark: listed apart in the source

T1 sequence (P06869 21-433): as above
T2 sequence (chain, as listed by the source C122A): as the sequence (chain, as listed by the source C122A) above

koff [1]: 0.00054 s⁻¹
koff [2]: 0.0011 s⁻¹
Kd [3]: 7.5 nM
Kd [4]: 11.2 nM
koff [5]: 0.00101 s⁻¹
koff [6]: 0.00084 s⁻¹
Kd [7]: 16.7 nM
Kd [8]: 19.3 nM
B1: anti-muPA allosteric nanobody Nb7 (VHH)
VHH: QVQLQESGGGLVQPGGSLRLSCAASGFTLGYYAIGWFRRAPGKEREGVSCISSSGGSTNYADSVKGRFTISRDNAKNTVDLQMNSLKPEDTAIYYCAAEWVPPGYGATVQALCNNAGYGMEYWGKGTQVTVSS
